The values that follow come from paper PMC10327126.

The assay concerns the target GST-NTF2L-F33W (human). The assay can be described thus: SPR.

pKd: −log10 of the molar value.

As to “N_(1–25)-WT peptide (from UniProt P0DTC9 1-25)”, the pKd was 5.72.
